We go through 3 molecules from patent US20120121596A1 (published 2012).

Residue numbers refer to the chain shown, from its start.

Experiment [1] addresses T1, hEGFR-ECD (human, UniProt P00533 25-645).
T1 construct: extracellular domain
In words: phage solution binding competition ELISA as in Example 1, antigen in solution varied.

Experiment [2] addresses T2, HER3-ECD-Fc (human, UniProt P21860 20-643, limits assumed).
T2 construct: extracellular domain; also called HER3-FC; HER3-IgG
In words: phage solution binding competition ELISA as in Example 1, antigen in solution varied; experiment of paragraph 431 (compared with DL7 and DL11). (In general: In an ELISA, binding on a coated surface is turned into a signal by an enzyme label.)

The target of experiment [3] is T2, HER3-ECD-Fc. The experiment in a line: phage solution binding competition ELISA; experiment of paragraph 433 (compared with DL3.1-3.7).
For another experiment, the target named is T3, BSA (bovine, UniProt P02769).
T3 construct: also called bovine serum albumin
T3 sequence (P02769 25-607 limits assumed): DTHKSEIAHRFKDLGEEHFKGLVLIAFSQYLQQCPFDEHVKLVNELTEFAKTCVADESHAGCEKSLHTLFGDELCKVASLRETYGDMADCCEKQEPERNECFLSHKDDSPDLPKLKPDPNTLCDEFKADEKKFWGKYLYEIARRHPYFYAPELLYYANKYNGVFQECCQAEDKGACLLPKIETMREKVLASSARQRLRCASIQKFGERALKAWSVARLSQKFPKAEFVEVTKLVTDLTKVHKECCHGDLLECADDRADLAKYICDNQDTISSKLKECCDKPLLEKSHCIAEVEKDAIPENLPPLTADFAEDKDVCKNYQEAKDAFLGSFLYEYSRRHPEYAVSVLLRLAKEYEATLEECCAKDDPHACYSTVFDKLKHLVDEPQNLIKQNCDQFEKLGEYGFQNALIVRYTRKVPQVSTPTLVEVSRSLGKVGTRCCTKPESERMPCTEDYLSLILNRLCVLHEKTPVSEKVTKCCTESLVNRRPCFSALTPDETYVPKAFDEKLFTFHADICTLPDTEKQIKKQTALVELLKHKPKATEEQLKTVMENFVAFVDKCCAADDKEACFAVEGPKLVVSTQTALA
The experiment in a line: direct phage ELISA, proteins coated at 2 µg/ml, phage-Fab supernatant, OD450.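 Further: specificity test of dual-activity clones, with binding assessed across an antigen panel to check whether each recognises only its cognate target.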

The next experiment has as its target T4, HER2-ECD (human, UniProt P04626 23-652).
T4 construct: extracellular domain
The experiment is described as above.

Another experiment deals with T5, HER4-ECD-Fc (human, UniProt Q15303 26-651, limits assumed).
T5 construct: extracellular domain
T5 sequence (looked up): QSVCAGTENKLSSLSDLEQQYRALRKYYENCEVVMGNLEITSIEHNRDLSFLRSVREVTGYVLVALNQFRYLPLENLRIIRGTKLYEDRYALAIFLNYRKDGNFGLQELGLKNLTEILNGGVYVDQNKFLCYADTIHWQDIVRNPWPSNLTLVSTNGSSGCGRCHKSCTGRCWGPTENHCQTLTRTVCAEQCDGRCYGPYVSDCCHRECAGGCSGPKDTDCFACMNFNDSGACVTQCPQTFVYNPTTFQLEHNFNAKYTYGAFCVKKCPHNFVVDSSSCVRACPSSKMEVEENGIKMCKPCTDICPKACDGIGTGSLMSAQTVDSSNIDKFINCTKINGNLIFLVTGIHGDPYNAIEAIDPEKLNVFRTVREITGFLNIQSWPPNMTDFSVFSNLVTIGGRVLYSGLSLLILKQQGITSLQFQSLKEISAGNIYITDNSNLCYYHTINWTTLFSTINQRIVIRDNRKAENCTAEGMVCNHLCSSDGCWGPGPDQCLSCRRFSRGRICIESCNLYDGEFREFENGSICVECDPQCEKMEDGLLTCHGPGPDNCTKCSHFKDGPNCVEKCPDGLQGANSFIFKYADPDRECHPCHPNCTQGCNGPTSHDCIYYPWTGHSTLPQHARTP
The experiment is described as above.

In experiment [4] the target is T6, hEGFR-ECD-Fc (human EGFR extracellular domain fused to an Fc region of human IgG1) (human, UniProt P00533 25-645).
T6 construct: extracellular domain; not shown: Fc region of human IgG1
The experiment in a line: phage ELISA of clones from plate selection.

Experiment [5] has as its target T2, HER3-ECD-Fc. In words: direct phage ELISA, proteins coated at 2 µg/ml, phage-Fab supernatant, OD450.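 Further: specificity test of dual-activity clones, with binding assessed across an antigen panel to check whether each recognises only its cognate target.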
Experiment [6] concerns the target T1, hEGFR-ECD. Described as above.
Another experiment has as its target T7, Erbitux.
T7 construct: also called cetuximab; C225; not shown: the constant regions
The description is as above.

Experiment [7] addresses T1, hEGFR-ECD. The experiment in a line: phage solution binding competition ELISA: hEGFR-ECD in solution varied, unbound phage captured on antigen-coated plate.
A further experiment concerns the target T8, Xolair.
T8 construct: not shown: the constant regions
In words: direct phage ELISA, proteins coated at 2 µg/ml, phage-Fab supernatant, OD450.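 Further: specificity test of dual-activity clones, with binding assessed across an antigen panel to check whether each recognises only its cognate target.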

B1: D1.5-100 (phage-displayed Fab clone) (Fab, V domains shown)
VH: EVQLVESGGGLVQPGGSLRLSCAASGFTFTGNWIHWVRQAPGKGLEWVGEISPSGGYTDYADSVKGRFTISADTSKNTAYLQMNSLRAEDTAVYYCARESRVSYEAAMDYWGQGTLVTVSS
VL: DIQMTQSPSSLSASVGDRVTITCRASQDLATDVAWYQQKPGKAPKLLIYSASFLYSGVPSRFSGSGSGTDFTLTISSLQPEDFATYYCQQSEPEPYTFGQGTKVEIKR
notes: also called DL1.5-100
What is called IC50 is the concentration needed to halve the response being measured. High values mean weaker potency in that assay, low ones greater potency in that assay. Take B1: the values for the IC50 with hEGFR-ECD [1], with HER3-ECD-Fc [2] and in the experiment with HER3-ECD-Fc [3] were 44 nM, 0.1 nM and 4.6 nM, respectively. Also, the binding result with BSA, with HER2-ECD and in the experiment with HER4-ECD-Fc was “no binding” in each case.

B2: D1.5-201 (phage-displayed Fab clone) (Fab, V domains shown)
VH: B1 VH
VL: DIQMTQSPSSLSASVGDRVTITCRASQAVWGGYIAPVAWYQQKPGKAPKLLIYDGSYLYSGVPSRFSGSGSGTDFTLTISSLQPEDFATYYCQQRLPTPYTFGQGTKVEIKR
notes: EGFR/HER2 dual-specific clone from the D1.5 light chain library
B2: the binding result in experiment [4] is reported as “binds”; with HER3-ECD-Fc [5], “no binding”; with BSA, “no binding”; with HER2-ECD, “binds”; with hEGFR-ECD [6] it was “binds”; with Erbitux it was “no binding”. Moreover, the binding result with HER4-ECD-Fc is reported as “no binding”.

B3: D1.5 (phage-displayed Fab clone) (Fab, V domains shown)
VH: B1 VH
VL: B1 VL with L29V, A30S, D32A, E92Y, E94T
On to B3, for which the IC50 in the experiment with hEGFR-ECD [7] came out at 0.39 nM. The binding result with HER3-ECD-Fc [5], in the experiment with BSA, with HER2-ECD, in the experiment with Xolair and in the experiment with HER4-ECD-Fc was “no binding” each time.
